According to article PMC11853559, “α-Synuclein Iron-Responsive-Element RNA and Iron Regulatory Protein Affinity Is Specifically Reduced by Iron in Parkinson’s Disease”:

Columns and labels:
Settings in all cases: protein: commercial; hairpin (stem-loop), melted and reannealed
[1] = biological target: T1, Iron regulatory protein 1 (IRP1) (UniProt P21399 1-889); experiment: fluorescence quenching, Scatchard; 25 °C, no Fe (abstract gives 21.0); 20 mM HEPES pH 7.4, 100 mM KCl, 1 mM MgCl2; 50 nM IRP1, 0-200 nM RNA; 15 min; 25 °C (5-30 °C series); Fe2+ 50 uM anaerobic where stated
T1 sequence: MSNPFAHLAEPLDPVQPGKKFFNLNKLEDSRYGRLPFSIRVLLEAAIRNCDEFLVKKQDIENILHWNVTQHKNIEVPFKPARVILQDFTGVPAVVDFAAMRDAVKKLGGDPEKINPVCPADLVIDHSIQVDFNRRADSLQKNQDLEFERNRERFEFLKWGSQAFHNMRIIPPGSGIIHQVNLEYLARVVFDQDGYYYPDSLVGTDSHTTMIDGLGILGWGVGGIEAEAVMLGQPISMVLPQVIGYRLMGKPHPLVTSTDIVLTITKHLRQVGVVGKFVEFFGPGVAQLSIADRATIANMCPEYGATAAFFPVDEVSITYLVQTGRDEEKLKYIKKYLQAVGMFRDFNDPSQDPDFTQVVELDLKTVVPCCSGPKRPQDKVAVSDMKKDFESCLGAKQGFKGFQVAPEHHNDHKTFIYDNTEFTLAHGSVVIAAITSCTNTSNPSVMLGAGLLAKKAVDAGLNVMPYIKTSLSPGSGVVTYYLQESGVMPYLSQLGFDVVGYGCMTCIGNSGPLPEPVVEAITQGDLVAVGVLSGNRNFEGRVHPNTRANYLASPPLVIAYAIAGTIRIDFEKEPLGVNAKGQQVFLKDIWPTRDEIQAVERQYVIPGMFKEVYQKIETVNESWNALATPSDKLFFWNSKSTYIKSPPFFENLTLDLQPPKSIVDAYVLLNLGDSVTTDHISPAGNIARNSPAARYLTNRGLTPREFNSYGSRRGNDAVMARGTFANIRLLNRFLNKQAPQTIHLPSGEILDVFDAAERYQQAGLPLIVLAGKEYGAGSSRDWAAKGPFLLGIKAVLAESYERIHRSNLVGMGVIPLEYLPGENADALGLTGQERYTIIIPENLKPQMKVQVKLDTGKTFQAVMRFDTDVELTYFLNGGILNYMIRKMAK

[2] = biological target: T1, Iron regulatory protein 1 (IRP1); experiment: fluorescence quenching (intrinsic); 30 °C, no Fe; 20 mM HEPES pH 7.4, 100 mM KCl, 1 mM MgCl2; 50 nM IRP1, 0-200 nM RNA; 15 min; 25 °C (5-30 °C series); Fe2+ 50 uM anaerobic where stated
[3] = biological target: T1, Iron regulatory protein 1 (IRP1); experiment: fluorescence quenching (intrinsic); 10 °C, no Fe; 20 mM HEPES pH 7.4, 100 mM KCl, 1 mM MgCl2; 50 nM IRP1, 0-200 nM RNA; 15 min; 25 °C (5-30 °C series); Fe2+ 50 uM anaerobic where stated
[4] = biological target: T1, Iron regulatory protein 1 (IRP1); experiment: fluorescence quenching (intrinsic); 15 °C, no Fe; 20 mM HEPES pH 7.4, 100 mM KCl, 1 mM MgCl2; 50 nM IRP1, 0-200 nM RNA; 15 min; 25 °C (5-30 °C series); Fe2+ 50 uM anaerobic where stated
[5] = biological target: T1, Iron regulatory protein 1 (IRP1); experiment: fluorescence quenching (intrinsic); 5 °C, no Fe; 20 mM HEPES pH 7.4, 100 mM KCl, 1 mM MgCl2; 50 nM IRP1, 0-200 nM RNA; 15 min; 25 °C (5-30 °C series); Fe2+ 50 uM anaerobic where stated
[6] = biological target: T1, Iron regulatory protein 1 (IRP1); experiment: fluorescence quenching (intrinsic); 25 °C, no Fe; 20 mM HEPES pH 7.4, 100 mM KCl, 1 mM MgCl2; 50 nM IRP1, 0-200 nM RNA; 15 min; 25 °C (5-30 °C series); Fe2+ 50 uM anaerobic where stated
[7] = biological target: T1, Iron regulatory protein 1 (IRP1); experiment: fluorescence quenching (intrinsic); 20 °C, no Fe; 20 mM HEPES pH 7.4, 100 mM KCl, 1 mM MgCl2; 50 nM IRP1, 0-200 nM RNA; 15 min; 25 °C (5-30 °C series); Fe2+ 50 uM anaerobic where stated

B1: alpha-Syn IRE RNA (SNCA 5'-UTR) (structured_RNA)
RNA: ACUGGGAGUGGCCAUUCGACGACAGUGUGGUGUAAAGGAAUUCAUUAGCC
- Ka [1]: 20.8 10^6 M-1
- Kd [2]: 0.0638 ± 0.0032 µM
- Kd [3]: 0.0219 ± 0.0008 µM
- Kd [4]: 0.0278 ± 0.0012 µM
- Kd [5]: 0.0135 ± 0.0006 µM
- Kd [6]: 0.0476 ± 0.0017 µM
- Kd [7]: 0.0389 ± 0.0015 µM
